The record followed here is patent US20240301052A1 (LANOVA MEDICINES DEVELOPMENT, published 2024).

T1: human SLC34A2 (human, UniProt O95436 1-690)
T1 construct: whole, on cells; also called human solute carrier 34 A2; NaPi2b
T1 sequence (looked up): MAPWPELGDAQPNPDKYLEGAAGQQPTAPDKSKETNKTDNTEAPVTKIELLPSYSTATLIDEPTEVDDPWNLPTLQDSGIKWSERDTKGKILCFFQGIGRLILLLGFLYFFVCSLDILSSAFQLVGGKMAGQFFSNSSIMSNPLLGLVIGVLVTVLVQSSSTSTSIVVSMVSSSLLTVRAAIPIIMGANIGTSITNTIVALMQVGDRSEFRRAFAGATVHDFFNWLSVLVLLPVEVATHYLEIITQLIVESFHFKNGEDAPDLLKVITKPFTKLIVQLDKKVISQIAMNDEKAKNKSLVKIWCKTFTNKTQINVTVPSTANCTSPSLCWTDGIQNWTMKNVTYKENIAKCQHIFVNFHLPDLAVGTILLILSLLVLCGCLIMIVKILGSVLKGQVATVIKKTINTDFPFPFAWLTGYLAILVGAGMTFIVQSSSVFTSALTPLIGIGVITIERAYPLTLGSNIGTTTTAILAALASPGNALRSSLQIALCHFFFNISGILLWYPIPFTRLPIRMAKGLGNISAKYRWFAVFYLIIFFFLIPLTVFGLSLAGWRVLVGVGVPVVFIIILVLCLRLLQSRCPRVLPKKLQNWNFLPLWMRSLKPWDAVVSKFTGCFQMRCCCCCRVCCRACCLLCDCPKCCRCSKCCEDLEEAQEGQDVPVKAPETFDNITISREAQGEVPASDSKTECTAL

T2: Rhesus SLC34A2 (Rhesus, UniProt F7HDA3 1-690)
T2 construct: whole, on cells
T2 sequence: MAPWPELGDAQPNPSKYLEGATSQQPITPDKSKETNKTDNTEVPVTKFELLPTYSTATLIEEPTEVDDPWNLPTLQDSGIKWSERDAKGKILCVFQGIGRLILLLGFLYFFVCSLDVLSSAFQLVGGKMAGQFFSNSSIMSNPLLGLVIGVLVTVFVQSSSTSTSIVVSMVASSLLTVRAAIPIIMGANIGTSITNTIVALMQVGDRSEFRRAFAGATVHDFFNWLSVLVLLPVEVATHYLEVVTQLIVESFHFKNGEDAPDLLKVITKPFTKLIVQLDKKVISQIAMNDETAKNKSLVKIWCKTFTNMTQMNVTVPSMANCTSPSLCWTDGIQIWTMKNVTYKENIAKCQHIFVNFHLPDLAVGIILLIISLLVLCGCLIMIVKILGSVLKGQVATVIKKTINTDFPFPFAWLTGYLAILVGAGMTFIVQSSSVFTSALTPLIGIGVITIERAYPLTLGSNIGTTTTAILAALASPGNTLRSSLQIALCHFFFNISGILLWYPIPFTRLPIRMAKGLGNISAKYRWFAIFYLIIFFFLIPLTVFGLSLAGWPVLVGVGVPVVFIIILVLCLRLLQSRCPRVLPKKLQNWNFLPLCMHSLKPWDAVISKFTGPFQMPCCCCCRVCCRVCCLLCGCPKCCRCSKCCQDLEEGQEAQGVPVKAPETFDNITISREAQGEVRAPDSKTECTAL

B1: 63A11D5B4.p1.z5 hIgG1 (antibody, V domains shown)
VH: QVQLVQSGAEVKKPGASVKVSCKTSGYTFITYNMHWVRQAPGQGLEWIGAIYPGSGDTSYNQKFKGRVTMTADTSTSTVYMELSSLRSEDTAVYYCSISTIITTGAVDYWGQGTLVTVSS
VL: DIQMTQSPSSLSASVGDRVTITCKASQDVGTAVAWYQQKPGKVPKLLIYWTSTRHTGVPSRFSGSGSGTDFTLTISSLQPEDVATYYCQQYSRIPLTFGGGTKVEIK
notes: humanized hIgG1
B2: 91C9F1.p1.z6 hIgG1 (antibody, V domains shown)
VH: QVQLVQSGAEVKKPGSSVKVSCKTSGFFFTEYIIHWVRQAPGQGLEWIGGIIPNNDVTNYKQNFRGRVTLTADKSTSTAYMELSSLRSEDTAVYYCARWRNAYYSAMDSWGQGTTVTVSS
VL: B1 VL with A13T, K24T, V43S, T51A, S60E, Y87F, S92R, R93T, I94S
notes: humanized hIgG1
B3: 63A11D5B4.p1.z15 hIgG1 (antibody, V domains shown)
VH: B1 VH with V5Q, K12V, V20M, R38K, L45R, V68A, M70L, T74K, V79A, L115S
VL: B1 VL with A13T, K42Q, V43S, S60D, T74I, S76R, Y87F
notes: humanized hIgG1
B4: 30H9B8F9.p1.z13 hIgG1 (antibody, V domains shown)
VH: QVQLVQSGAEVVKPGASVKMSCKTSGYTFTTNNMHWVKQAPGQGLEWIGAIYPGSGATAYNQKFKGRATLTADKSTSTAYMELSSLRSEATAVYYCARGMYGHGAMDYWGQGTSVTVSS
VL: DIQLTQSPSFLSASVGDRVTITCKASQDVGTAVAWYQQKPGKAPKLLIYWATTRHSGVPSRFSGSGSGTEFTLTISSLQPEDFATYYCQQYSSNPLTFGQGTKLEIK
notes: humanized hIgG1
B5: 30H9B8F9.p1.z6 hIgG1 (antibody, V domains shown)
VH: B4 VH with V12K, M20V, K38R, A68V, L70M, K74T, A79V, A90D, S114L
VL: B4 VL with A43S, S60D, L73F, Y87F
notes: humanized hIgG1
B6: 30H9B8F9.p1.z9 hIgG1 (antibody, V domains shown)
VH: B4 VH with M20V, K38R, A68V, S114L
VL: B4 VL
notes: humanized hIgG1
B7: 91C9F1.p1.z14 hIgG1 (antibody, V domains shown)
VH: QVQLVQSGAEVVKPGSSVKISCKTSGFFFTEYIIHWVKQSPGQGLEWIGGIIPNNDVTNYKQNFRGRATLTADKSTNTAYMELRSSLRSEDTAVYYCARWRNAYYSAMDSWGQGTTVTVSS
VL: B1 VL with A13T, K24T, V43S, T51A, S60E, Y87F, S92R, R93T, I94S
notes: humanized hIgG1
B8: 91C9F1.p1.z8 hIgG1 (antibody, V domains shown)
VH: B2 VH
VL: DIVVTQSPSSLSTSVGDRVTITCTASQDVGTAVAWYQQKPGKSPKLLIYWASTRHTGVPERFTGSGSGTDFTLTISSVQPEDVATYFCQQYRTSPLTFGVGTKLELK
notes: humanized hIgG1
B9: 91C9F1.p1.z2 hIgG1 (antibody, V domains shown)
VH: B2 VH with T24A, I48M, L70I, K74E
VL: B8 VL with V3Q, V4M, T63S, V78L, V100G, L104V, L106I
notes: humanized hIgG1
B10: 91C9F1.p1.z9 hIgG1 (antibody, V domains shown)
VH: B2 VH with K12V, A40S, V68A
VL: B1 VL with K24T, T51A, S92R, R93T, I94S
notes: humanized hIgG1
B11: 91C9F1.p1.z11 hIgG1 (antibody, V domains shown)
VH: B2 VH with K12V, A40S, V68A
VL: B8 VL with V3Q, L104V, L106I
notes: humanized hIgG1
B12: 91C9F1.p1.z12 hIgG1 (antibody, V domains shown)
VH: B2 VH with K12V, A40S, V68A
VL: B8 VL
notes: humanized hIgG1
B13: 91C9F1.p1.z5 hIgG1 (antibody, V domains shown)
VH: B2 VH
VL: B1 VL with K24T, T51A, S92R, R93T, I94S
notes: humanized hIgG1
B14: 91C9F1.p1.z3 hIgG1 (antibody, V domains shown)
VH: B2 VH with T24A, I48M, L70I, K74E
VL: B8 VL with V3Q, L104V, L106I
notes: humanized hIgG1

Changes are numbered by the printed parent chain.

The first assay deals with T1, human SLC34A2. Put plainly: FACS, RMG-1 cells. The method, then: (§1) In another testing, cell based binding of hu Abs on human SLC34A2 expressing cells were assessed using flow cytometry. Briefly, the HEK293/H_SLC34A2, OVCAR3 and RMG-1 cells were incubated with hu Abs. After incubation at 4° C. for 60 minutes, the cells were washed with FACS buffer twice, then stained with fluorescent conjugated secondary antibody at 4° C. for 30 minutes. After that the cells were washed twice and analyzed by flow cytometry.
In the case of B1, the EC50 (in general, the concentration that produces a half-maximal response) came to 36.2 nM and the Top was found to be 11800 MFI.

In turn, B2 showed an EC50 of 3.03 nM and a Top of 9560 MFI.

B3: the EC50 came to 40.6 nM and the Top was 13200 MFI.

Turning to B4, the midpoint of the response, the EC50, lay at 0.73 nM and the Top amounted to 10900 MFI.

B5 returned an EC50 of 1.78 nM and a Top of 10400 MFI.

As for B6, the midpoint of the response, the EC50, lay at 1.4 nM and the Top amounted to 11600 MFI.

For another assay, the target named is T1, human SLC34A2. Briefly: FACS, OVCAR3 cells. The method, then: The binding of these humanized antibodies to OVCAR3 cells was evaluated as described above, and the results are shown in FIG. 12A-D and Tables 16A-D.
On to B4, for which the response was half-maximal at 1.03 nM (EC50) and the “Top (MFI)” value was determined as 28400 MFI.

Regarding B5, the EC50 came to 1.62 nM and the “Top (MFI)” value amounted to 28400 MFI.

B6: the concentration giving a half-maximal response (EC50) amounted to 1.59 nM and the “Top (MFI)” value was found to be 29400 MFI.

A further assay deals with T1, human SLC34A2. Briefly: FACS, OVCAR3 cells. The source holds these as a separate data set.
Regarding B1, a half-maximal response (EC50) required 13.5 nM and the “Top (MFI)” value worked out at 28200 MFI.

In the case of B3, the midpoint of the response, the EC50, lay at 9.23 nM and the “Top (MFI)” value worked out at 30200 MFI.

Another assay has as its target T1, human SLC34A2. Put plainly: FACS, OVCAR3 cells. This is another data set of the same source.
With B7, a half-maximal effect (EC50) was put at 3.87 nM and the “Top (MFI)” value amounted to 36200 MFI.

Turning to B2, the midpoint of the response, the EC50, lay at 1.72 nM and the “Top (MFI)” value was 36100 MFI.

Turning to B8, the EC50 was found to be 2.13 nM and the “Top (MFI)” value is 35700 MFI.

B9: the EC50 came to 3.32 nM and the “Top (MFI)” value stood at 34500 MFI.

As for B10, the EC50 came out at 2.72 nM and the “Top (MFI)” value is 37000 MFI.

Consider B11, for which a half-maximal effect (EC50) was put at 1.41 nM and the “Top (MFI)” value stood at 31000 MFI.

As to B12, the EC50 was determined as 1.77 nM and the “Top (MFI)” value came to 34500 MFI.

With B13, the response was half-maximal at 2.95 nM (EC50) and the “Top (MFI)” value was determined as 36900 MFI.

Regarding B14, the EC50 is 4.04 nM and the “Top (MFI)” value was 35500 MFI.

For another assay, the target named is T1, human SLC34A2. Briefly: FACS, OVCAR3 cells. The source holds these as a separate data set. On the procedure:
as §1
(A flow cytometer gives signals particle by particle.)
Take B1: the EC50 was determined as 13.5 nM.

The molecule B2 gave an EC50 of 2.86 nM and a Top of 20300 MFI.

On to B3, for which the response was half-maximal at 9.23 nM (EC50).

The molecule B4 registered an EC50 of 0.62 nM.

On to B5, for which the EC50 stood at 1.1 nM.

In turn, B6 yielded an EC50 of 1.08 nM.

Another assay has as its target T1, human SLC34A2. Briefly: cell-based or functional assay.
Turning to B1, the “ADCC reporter EC50” value stood at 0.95 nM and the “ADCC reporter Top (MFI)” value was 116000 MFI.

B2: the “ADCC reporter EC50” value was 1.77 nM and the “ADCC reporter Top (MFI)” value was 125000 MFI.

As for B3, the “ADCC reporter EC50” value is 1.47 nM and the “ADCC reporter Top (MFI)” value worked out at 122000 MFI.

B4: the “ADCC reporter EC50” value was 0.96 nM and the “ADCC reporter Top (MFI)” value worked out at 143000 MFI.

Take B5: the “ADCC reporter EC50” value was 1.25 nM and the “ADCC reporter Top (MFI)” value came out at 135000 MFI.

Regarding B6, the “ADCC reporter EC50” value was found to be 1.53 nM and the “ADCC reporter Top (MFI)” value amounted to 145000 MFI.

In a further assay the target is T1, human SLC34A2. Briefly: FACS, HEK293/human SLC34A2 cells. On the procedure:
as §1
B1 yielded an EC50 of 4.8 nM and a Top of 35900 MFI.

Molecule B2 returned an EC50 of 1.72 nM and a Top of 36100 MFI.

Take B3: the EC50 amounted to 7.12 nM and the Top stood at 37000 MFI.

In turn, B4 registered an EC50 of 1.05 nM and a Top of 33000 MFI.

As to B5, the midpoint of the response, the EC50, lay at 1.94 nM and the Top amounted to 33600 MFI.

As for B6, the concentration for a half-maximal effect (EC50) amounted to 1.81 nM and the Top worked out at 34200 MFI.

The target of another assay is T2, Rhesus SLC34A2. Put plainly: FACS, HEK293/Rhesus SLC34A2 cells.
B1: the EC50 turned out to be 3.9 nM and the “Top (MFI)” value stood at 11100 MFI.

As to B2, the EC50 is 8.8 nM and the “Top (MFI)” value turned out to be 8160 MFI.

On to B3, for which the EC50 was 4.7 nM and the “Top (MFI)” value stood at 10300 MFI.

On to B4, for which the EC50 was 0.8 nM and the “Top (MFI)” value amounted to 15600 MFI.

On to B5, for which the EC50 was found to be 1.1 nM and the “Top (MFI)” value is 15100 MFI.

For the molecule B6, the response was half-maximal at 0.9 nM (EC50) and the “Top (MFI)” value is 16300 MFI.
